Test results from the supplement of paper PMC10126150.
± gives the standard deviation of the averaged measurements.

Tested on: ATP
Assay: switch fluorescence ratio, 500 uM ATP over buffer (Cy3 cluster intensity, sum of 5 cycles each) (fold (ratio)); higher = stronger signal-on switching upon ATP binding; sequences stand for … in TCGTCGGCAGCGTCAGATGTGTATAAGAGACAGTTTTTTTTTTTTTTTTTTTTTTTTT…TC
Conditions: aptamer strand: ATP DNA aptamer (quencher-CACCTGGGGGAGTATTGCGGAGGAAGG + anchor), 100 nM annealed; ATP concentration: 500 uM
Summary of the method: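 Clusters with intensities outside 100-1000 RFU were excluded. The remaining Cy3-labelled switching-strand clusters on a modified Illumina MiSeq flow-cell had been annealed to 100 nM quencher-labelled ATP aptamer and imaged in selection buffer, then after 15 min with 500 uM ATP at 22 °C, for five cycles separated by NaOH stripping and re-annealing. The fluorescence ratio, averaged per switch-domain sequence, is each cluster's summed target-cycle Cy3 intensity over its summed buffer-cycle Cy3 intensity.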
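Further: ATP exposure 15 min at 22 °C before imaging.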

AAACGGATTC was tested, and the switch fluorescence ratio was 0.999 ± 0.052.

AGCTAGCAGG showed a switch fluorescence ratio of 0.974 ± 0.039.

Work on AAGTGTAAGG yielded a switch fluorescence ratio of 1.018 ± 0.0039.

Work on GGGGGGATGA yielded a switch fluorescence ratio of 0.992 ± 0.024.

Sequence TTCTGCTTAG has a switch fluorescence ratio of 2.04 ± 0.039.

With GTGAAAGGCA the switch fluorescence ratio was 1.004 ± 0.005.

Sequence CATCGTGGTT has a switch fluorescence ratio of 0.9778 ± 0.0043.

Sequence GGATATAATG has a switch fluorescence ratio of 0.985 ± 0.019.

For CAATTGCAAT, the switch fluorescence ratio was 1.02 ± 0.02.

CGCTTACTTT gave a switch fluorescence ratio of 1.24 ± 0.021.

In the case of CCAGGACGTA, the switch fluorescence ratio is reported as 1.02 ± 0.027.

AGGGGTCTGT was tested, and the switch fluorescence ratio was 1.015 ± 0.0013.

ATTCCTAGGG gave a switch fluorescence ratio of 1.048 ± 0.0022.

Work on CTTAACATGC yielded a switch fluorescence ratio of 1.06 ± 0.049.

Work on CACGCGGAGG yielded a switch fluorescence ratio of 1.03 ± 0.039.

TGCCCATGAT gave a switch fluorescence ratio of 0.963 ± 0.018.

With CCCTTGACGG the switch fluorescence ratio was 1.07 ± 0.14.

GTGCTGGTTT gave a switch fluorescence ratio of 1.05 ± 0.14.

Work on TTGATTTACT yielded a switch fluorescence ratio of 0.993 ± 0.03.

TTGAAATAGT gave a switch fluorescence ratio of 1.01 ± 0.024.

For AATGCTGGGG, the switch fluorescence ratio was 1.05 ± 0.081.

With GTGTGAGGTT the switch fluorescence ratio was 0.989 ± 0.019.

Sequence TCCTGCAGGA has a switch fluorescence ratio of 1.03 ± 0.014.

For AGGTGATTAG, the switch fluorescence ratio was 0.986 ± 0.044.

TTTCCGGCGG was tested, and the switch fluorescence ratio was 1.12 ± 0.09.

For TCGTAGGGGG, the switch fluorescence ratio was 0.979 ± 0.072.

In the case of TCAGGGTTAT, the switch fluorescence ratio is reported as 1.02 ± 0.0034.

With TAACGCCGTG the switch fluorescence ratio was 1.02 ± 0.029.

With GGAATTGGAT the switch fluorescence ratio was 1 ± 0.025.

CAGTTGTGGT gave a switch fluorescence ratio of 0.998 ± 0.011.

For TTAGTAGCTA, the switch fluorescence ratio was 1.01 ± 0.013.

TTTTGCACTT gave a switch fluorescence ratio of 1.022 ± 0.0012.

AGGGGTTGGA was tested, and the switch fluorescence ratio was 1.01 ± 0.036.

AAGGAAAAAC showed a switch fluorescence ratio of 1.03 ± 0.029.

Work on ATCGAATATT yielded a switch fluorescence ratio of 0.983 ± 0.031.

CAACTCTTTT gave a switch fluorescence ratio of 0.998 ± 0.038.

For ACGACGGTAG, the switch fluorescence ratio was 1.02 ± 0.029.

Work on CGCATCGCGT yielded a switch fluorescence ratio of 1.02 ± 0.015.

ACTTTGTCAT was tested, and the switch fluorescence ratio was 0.981 ± 0.017.

In the case of GAGTGTCGGC, the switch fluorescence ratio is reported as 0.9963 ± 0.0052.

TTCGTGTCAG gave a switch fluorescence ratio of 0.995 ± 0.023.

TGTTCCGGGA was tested, and the switch fluorescence ratio was 1.04 ± 0.023.

ATGTTCTCGT gave a switch fluorescence ratio of 0.995 ± 0.021.

Sequence GGGGCAACGG has a switch fluorescence ratio of 1.05 ± 0.12.

Work on CTGTGTGCGG yielded a switch fluorescence ratio of 0.97 ± 0.03.

TGAGGGAGGG showed a switch fluorescence ratio of 1.01 ± 0.017.

AAAAGTGTTT gave a switch fluorescence ratio of 0.99 ± 0.033.

CCTCATAGTC showed a switch fluorescence ratio of 1.413 ± 0.0066.

AGGGGAGGCT gave a switch fluorescence ratio of 0.997 ± 0.045.

In the case of GATAGATAGG, the switch fluorescence ratio is reported as 0.967 ± 0.055.

With TTTTACGTGG the switch fluorescence ratio was 0.9938 ± 0.0019.

For TAGTTTCTAC, the switch fluorescence ratio was 0.992 ± 0.033.

TCAGCAGGTT gave a switch fluorescence ratio of 2.85 ± 2.2.

For GACGTAGAGC, the switch fluorescence ratio was 1.08 ± 0.026.

With AGGGTATGGT the switch fluorescence ratio was 1.01 ± 0.023.

AAAAGGGTCT was tested, and the switch fluorescence ratio was 1.02 ± 0.024.

With AAAAAAGTTC the switch fluorescence ratio was 0.984 ± 0.022.

For GGGCTAAAAG, the switch fluorescence ratio was 0.97428 ± 3.4e-05.

GTAGGGTCAG was tested, and the switch fluorescence ratio was 0.994 ± 0.027.

For GATTACATGC, the switch fluorescence ratio was 1.01 ± 0.037.

Sequence ATGAATGGGG has a switch fluorescence ratio of 1.01 ± 0.072.

AGGGGGGTGA gave a switch fluorescence ratio of 1.017 ± 0.0015.

In the case of TGTGATTGTT, the switch fluorescence ratio is reported as 1.02 ± 0.013.

CCGTTTGGCA was tested, and the switch fluorescence ratio was 1.15 ± 0.022.

Sequence AACATCGTAC has a switch fluorescence ratio of 1.12 ± 0.06.

ATATTATTAA gave a switch fluorescence ratio of 0.975 ± 0.014.

Work on GCGTTTAAGA yielded a switch fluorescence ratio of 1.04 ± 0.021.

For CGCTTTTCGT, the switch fluorescence ratio was 1.0023 ± 8e-05.

TAGAAAGACT showed a switch fluorescence ratio of 1.07 ± 0.067.

GGACGGGAAC gave a switch fluorescence ratio of 1.13 ± 0.055.

In the case of TGGTCCATGG, the switch fluorescence ratio is reported as 1.008 ± 0.007.

For TTTTAAATGC, the switch fluorescence ratio was 1.07 ± 0.13.

GACGTTTCTG was tested, and the switch fluorescence ratio was 1.01 ± 0.098.

In the case of GTAATAATTT, the switch fluorescence ratio is reported as 0.9982 ± 0.0034.

For CTATTGGTTT, the switch fluorescence ratio was 0.9746 ± 0.0021.

Sequence TAGCACAGTG has a switch fluorescence ratio of 1.15 ± 0.15.

GGAACCGGTA was tested, and the switch fluorescence ratio was 1.02 ± 0.012.

ACCTGGTGGG gave a switch fluorescence ratio of 0.984 ± 0.028.

Work on GCTTTAATTG yielded a switch fluorescence ratio of 1.004 ± 0.0097.

AAAAAGGGGT gave a switch fluorescence ratio of 1.15 ± 0.34.

AGGATGGTTA was tested, and the switch fluorescence ratio was 0.968 ± 0.076.

TGGGTCTAGT was tested, and the switch fluorescence ratio was 0.9975 ± 0.0042.

Work on TTTACGCGTC yielded a switch fluorescence ratio of 1.16 ± 0.27.

GTGGGGTAGA was tested, and the switch fluorescence ratio was 1.05 ± 0.021.

CGGCTAGAAG was tested, and the switch fluorescence ratio was 0.994 ± 0.038.

In the case of CGGTTTGTAT, the switch fluorescence ratio is reported as 0.985 ± 0.023.

ATAACTCGGA was tested, and the switch fluorescence ratio was 1 ± 0.0019.

Sequence AGCTAATTCG has a switch fluorescence ratio of 1.03 ± 0.045.

Sequence TTCATAAATT has a switch fluorescence ratio of 1.02 ± 0.023.

GACGCGTCTC showed a switch fluorescence ratio of 1.033 ± 0.0057.

TTGATCCAGC showed a switch fluorescence ratio of 0.9958 ± 0.0068.

With ACGCGGGGGT the switch fluorescence ratio was 1.07 ± 0.069.

With GGGGATCGTT the switch fluorescence ratio was 1.02 ± 0.021.

GGGGGTGGGA showed a switch fluorescence ratio of 1 ± 0.019.

Sequence GAAGAAAACT has a switch fluorescence ratio of 1.08 ± 0.014.

For GATGGCCACG, the switch fluorescence ratio was 0.9881 ± 0.0047.

With TTGGTGCTTG the switch fluorescence ratio was 1 ± 0.041.

CCTGAGTGTA gave a switch fluorescence ratio of 1 ± 0.024.

For TGATGAAAGG, the switch fluorescence ratio was 0.987 ± 0.031.

Work on GTCATTAGCG yielded a switch fluorescence ratio of 0.973 ± 0.012.

With ATGGTTTATG the switch fluorescence ratio was 0.9812 ± 0.0077.

For TCATTAGCTT, the switch fluorescence ratio was 0.991 ± 0.012.

TCTATTCTCC showed a switch fluorescence ratio of 1.52 ± 0.72.

With TTACCAAAAC the switch fluorescence ratio was 1.41 ± 0.54.

CGATAACGGG was tested, and the switch fluorescence ratio was 1.07 ± 0.077.

For CCGAGTGGAG, the switch fluorescence ratio was 1.083 ± 0.0024.

TGGTATTGTG showed a switch fluorescence ratio of 0.947 ± 0.021.

In the case of GGCGGCGCGT, the switch fluorescence ratio is reported as 1.04 ± 0.019.

For CATAATCGCA, the switch fluorescence ratio was 1.04 ± 0.021.

For TACGATTTGG, the switch fluorescence ratio was 0.993 ± 0.0027.

In the case of GGCCTTAGGG, the switch fluorescence ratio is reported as 0.987 ± 0.013.

AATATACTTT gave a switch fluorescence ratio of 1.04 ± 0.051.

TTCGTGCTTT showed a switch fluorescence ratio of 0.995 ± 0.035.

TAATTTTGTG gave a switch fluorescence ratio of 0.975 ± 0.044.

With TTTGACATGT the switch fluorescence ratio was 0.975 ± 0.038.

TAGTTAGTGA was tested, and the switch fluorescence ratio was 0.986 ± 0.034.

TGGGTTATAT was tested, and the switch fluorescence ratio was 0.979 ± 0.011.

GTGAGAAAGG gave a switch fluorescence ratio of 0.982 ± 0.015.

Sequence GGTGGCAGGA has a switch fluorescence ratio of 1.01 ± 0.032.

Sequence GCTCGTAGTT has a switch fluorescence ratio of 1.01 ± 0.046.

With TTTGGAAATT the switch fluorescence ratio was 1.43 ± 0.61.

AAAAGGAG gave a switch fluorescence ratio of 1.01 ± 0.016.

TTCCATTGTA showed a switch fluorescence ratio of 1.02 ± 0.031.

Work on TTGAAATAG yielded a switch fluorescence ratio of 0.9957 ± 0.0097.

In the case of TTTGAAGACT, the switch fluorescence ratio is reported as 0.98 ± 0.028.

In the case of CAGTTACGAT, the switch fluorescence ratio is reported as 1.03 ± 0.032.

TAAAGCGTTT showed a switch fluorescence ratio of 1.12 ± 0.27.

Work on TTTATATAGA yielded a switch fluorescence ratio of 0.996 ± 0.033.

TTAGGTTTGG showed a switch fluorescence ratio of 1.05 ± 0.15.

CTGTTCGCCA showed a switch fluorescence ratio of 1.07 ± 0.077.

GGAGGCGGGG gave a switch fluorescence ratio of 1.08 ± 0.18.

Work on TACACTTCTC yielded a switch fluorescence ratio of 1.08 ± 0.025.

TATTTAAT showed a switch fluorescence ratio of 1.07 ± 0.11.

GTTTGAAATT showed a switch fluorescence ratio of 1.03 ± 0.09.

Work on TTTTTATGCC yielded a switch fluorescence ratio of 0.963 ± 0.05.

TGTTGGGGAA showed a switch fluorescence ratio of 0.9676 ± 0.0074.

With CACTAATTAA the switch fluorescence ratio was 1.004 ± 0.009.

ACATTGAACG gave a switch fluorescence ratio of 1.07 ± 0.017.

CAGGGACGGC gave a switch fluorescence ratio of 1.02 ± 0.012.

With TTAAAAGGCT the switch fluorescence ratio was 0.9974 ± 0.0012.

CGGCTGTTTT showed a switch fluorescence ratio of 1.037 ± 0.0082.

Work on TGCCGGCTGG yielded a switch fluorescence ratio of 1.02 ± 0.053.

Sequence CGTAAGTGCA has a switch fluorescence ratio of 1 ± 0.024.

TGTGGGCAAT gave a switch fluorescence ratio of 1.56 ± 0.77.

TGGGGAGGAG gave a switch fluorescence ratio of 0.995 ± 0.017.

Work on TGTGTATTTT yielded a switch fluorescence ratio of 0.992 ± 0.028.

GGGATAAGGA gave a switch fluorescence ratio of 0.99 ± 0.044.

Sequence AAAGGGGGCA has a switch fluorescence ratio of 0.99 ± 0.031.

With ACAAGGGTTA the switch fluorescence ratio was 0.999 ± 0.018.

In the case of GGGGTCGTCA, the switch fluorescence ratio is reported as 1.04 ± 0.0072.

GTATGGTAGG showed a switch fluorescence ratio of 1.03 ± 0.05.

In the case of GTGTGGGGGA, the switch fluorescence ratio is reported as 1.02 ± 0.04.

For ATATCGGTGT, the switch fluorescence ratio was 0.991 ± 0.029.

For CGCATTTTGC, the switch fluorescence ratio was 1.19 ± 0.15.

GGTACGTTGG showed a switch fluorescence ratio of 1.02 ± 0.0078.

TCTTAAAGAT showed a switch fluorescence ratio of 1.06 ± 0.022.

TTTATAGACT gave a switch fluorescence ratio of 1.02 ± 0.0016.
